Reference: patent US20220267396A1
Values joined by “and” are separate entries in the source; they are usually repeats but may differ in a detail not shown here. Equal entries are not always repeated. Blank lines part the entries; values can stand above or below the molecule they belong to.

What was measured:
[1] = molecular target: anti-DNP mouse IgE antibody (Sigma, USA); experiment: BLI (Octet K2), fusion protein on sensor, anti-DNP mouse IgE in solution
[2] = molecular target: anti-DNP mouse IgE antibody (Sigma, USA); experiment: BLI (Octet K2), fusion protein amine-coupled to AR2G sensor, anti-DNP mouse IgE in solution 50 pM-3.125 nM
[3] = molecular target: anti-DNP mouse IgE antibody (Sigma, USA); experiment: BLI (Octet K2), average of three runs, fusion protein on sensor, anti-DNP mouse IgE in solution
[4] = molecular target: T1, IL-10 receptor 1 (IL-10R1), IL-10R His-tag protein; experiment: BLI (Octet K2), IL-10R His-tag amine-coupled to AR2G sensor, fusion protein in solution 0-1,000 nM
T1 sequence (Q13651 22-235, species assumed, looked up): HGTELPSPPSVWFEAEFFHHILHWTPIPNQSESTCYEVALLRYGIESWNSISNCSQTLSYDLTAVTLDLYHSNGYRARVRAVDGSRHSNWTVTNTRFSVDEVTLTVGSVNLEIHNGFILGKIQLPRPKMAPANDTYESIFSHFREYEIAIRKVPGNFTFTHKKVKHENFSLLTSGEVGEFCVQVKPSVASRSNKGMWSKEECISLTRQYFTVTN

[5] = molecular target: T1, IL-10 receptor 1 (IL-10R1), IL-10R His-tag protein; experiment: BLI (Octet K2), IL-10R His-tag on sensor

kon [1]: 123000 M⁻¹ s⁻¹ and 149000 M⁻¹ s⁻¹ and 166000 M⁻¹ s⁻¹ | Kd [2]: 0.364 nM and 0.478 nM and 0.94 nM | Kd [3]: 0.594 nM
Molecule: FcεRIα-Fc fusion protein not containing IL-10Vm (control) (from UniProt P12319 26-205)

Kd [4]: 11.1 nM | koff [4]: 0.0008 s⁻¹ | kon [4]: 71100 M⁻¹ s⁻¹
B1: IL-10M (NTIG-linker 1-IL-10V), dimeric IL-10 variant fusion protein of Comparative Example 1 (Fc fusion, not shown: a dimerising Fc or GST)
chain: AAGSGGGGGSGGGGSGGGGSSPGQGTQSENSCTHFPGNLPNMLRDLRDAFSRVKTFFQMKDQLDNLLLKESLLEDFKGYLGCQALSEMIQFYLEEVMPQAENQDPDAKAHVNSLGENLKTLRLRLRRCHRFLPCENKSKAVEQVKNAFNKLQEKGIYKAMSEFDIFINYIEAYMTMKIRN

fold of KD against Comparative Example 1 (NTIG-IL-10V) [5]: 3 fold | Kd [4]: 29.2 nM | koff [4]: 0.0006 s⁻¹ | kon [4]: 20600 M⁻¹ s⁻¹
B2: IL-10M-1 (NTIG-linker 1-IL-10Vm), monomeric IL-10 variant fusion protein of Example 1 (Fc fusion)
chain: SHTQPLGVFLFPPKPKDQLMISRTPEVTCVVVDVSQEDPEVQFNWYVDGVEVHNAKTKPREEQFNSTYRVVSVLTVLHQDWLNGKEYKCKVSNKGLPSSIEKTISKAKGQPREPQVYTLPPSQEEMTKNQVSLTCLVKGFYPSDIAVEWESNGQPENNYKTTPPVLDSDGSFFLYSRLTVDKSRWQEGNVFSCSVLHEALHNHYTQKSLSLSLGAAGSGGGGGSGGGGSGGGGSSPGQGTQSENSCTHFPGNLPNMLRDLRDAFSRVKTFFQMKDQLDNLLLKESLLEDFKGYLGCQALSEMIQFYLEEVMPQAENQDPDIKAHVNSLGENLKTLRLRLRRCHRFLPCENGGSGGSGGSKSKAVEQVKNAFNKLQEKGIYKAMSEFDIFINYIEAYMTMKIRN
